# Data: patent publication US20050080013A1 (Pfizer, published 2005)
# Non-standard residues stand in square brackets, D forms with d. Primed or numbered codes have the meaning given here. No end group written: not given here. Nal″ = naphthylalanine; Aib = CC(C)(N)C(=O)O
# T1: lecithin:cholesterol acyltransferase (LCAT), purified from human plasma (human, UniProt P04180 25-440)
# T1 sequence (looked up): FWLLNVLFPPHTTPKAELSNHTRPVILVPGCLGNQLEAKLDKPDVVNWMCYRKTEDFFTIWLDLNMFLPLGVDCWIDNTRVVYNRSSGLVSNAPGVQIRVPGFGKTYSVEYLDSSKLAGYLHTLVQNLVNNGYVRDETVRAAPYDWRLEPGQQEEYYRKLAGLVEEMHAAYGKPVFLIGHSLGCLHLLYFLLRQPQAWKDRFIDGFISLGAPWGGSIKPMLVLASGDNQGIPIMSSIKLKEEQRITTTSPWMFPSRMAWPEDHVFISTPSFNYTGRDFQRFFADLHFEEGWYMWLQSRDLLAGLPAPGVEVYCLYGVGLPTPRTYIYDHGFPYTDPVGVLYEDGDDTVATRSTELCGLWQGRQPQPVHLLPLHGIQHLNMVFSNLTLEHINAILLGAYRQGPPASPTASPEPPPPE
# Molecular target: T1, lecithin:cholesterol acyltransferase …
# Assay: cell-based or functional assay
row,Binder,ACTIVITY (%) LCAT
1,PVLDEFREKLNEELEA[Aib]KQKLK [peptide 119],0%
2,PKLDEFREKLNE[Aib]LEALKQKLK [peptide 115],0%
3,PVLELFLNLLERLLDWLQKKLK [peptide 158],30%
4,PVLDEFREKLWE[Aib]WEALKQKLK [peptide 111],0%
5,PVLDLFKELLQELLEALKQKLK [peptide 11],72%
6,KLKQKLAELLENLLERFLDLVP (all D-amino acids (lower case)) [peptide 107],0%
7,PVLELFENLLERLFDALQKKLK [peptide 147],76%
8,PVLDLFRELLNELLEA[Nal″]KQKLK [peptide 10],79%
9,PVLDEFREKLNEELE[Aib]LKQKLK [peptide 120],0%
10,PVLELFENLGERLLDALQKKLK [peptide 151],55%
11,PVLELFENLLERLLEALQKKLK [peptide 161],27%
12,PVLDEFRELLNEELEALKQKLK [peptide 103],1%
13,PVLELFENLWERLLDALQKKLK [peptide 149],63%
14,PVLELFLNLLERLLDALQKKLK [peptide 156],35%
15,PVLDEFREKLNE[Aib]LEALEQKLK [peptide 118],0%
16,PVLEFFENLLERLLDALQKKLK [peptide 157],30%
17,AVLELFENLLERLLDALQKKLK [peptide 153],49%
18,PVLELFENLLERLLDALQKKLK [peptide 146],86%
19,PVLDEFREKLNEELEWLKQKLK [peptide 122],0%
20,PHLDEFREKLNE[Aib]LEALKQKLK [peptide 116],0%
21,PVLELFENLLERLGDALQKKLK [peptide 148],75%
22,PVLDEFREKLNE[Aib][Aib]EALKQKLK [peptide 110],0%

row,Binder,ACTIVITY (%) LCAT
1,PVFELFENLLERLLDALQKKLK [peptide 152],50%
2,PVLDLFRELLNELLEAGKQKLK [peptide 12],70%
3,PELDEFREKLNE[Aib]LEALKQKLK [peptide 117],0%
4,PVLELFENLLERLLDWLQKKLK [peptide 160],28%
5,PLLNELLEALKQKLK [peptide 104],1%
6,PVLDEFREKLNE[Aib]MEALKQKLK [peptide 114],0%
7,PVLDLFRELLNELLELLKQKLK [peptide 127],47%
8,PLLELFENLLERLLDALQKKLK [peptide 150],57%
9,PVLDLFRWLLNE[Aib]LEALKQKLK [peptide 108],0%
10,[dP]VLELFENLLERLLDALQKKLK [peptide 144],111%
11,GVLELFENLLERLLDALQKKLK [peptide 145],100%
12,PVLDEFREKLNERLEALKQKLK [peptide 109],0%
13,PVLELFENLLERGLDALQKKLK [peptide 154],39%
14,PVLDLFRELLNELLE[Nal″]LKQKLK [peptide 1],120%
15,PVLDEFREKLNE[Aib]SEALKQKLK [peptide 112],0%
16,PVLDEFREKLNEELEALWQKLK [peptide 121],0%
17,PAADAFREAANEAAEAAKQKAK [peptide 105],1%
18,PVLDLFENLLERLLDALQKKLK [peptide 159],28%
19,PVLDLFREKLNEELEALKQKLK [peptide 106],0%
20,PVLDEFREKLNEPLEALKQKLK [peptide 113],0%
21,GVLDLFRELLNEGLEALKQKLK [peptide 13],67%
22,PVLELFLNLWERLLDALQKKLK [peptide 155],38%
